Data set [1] addresses T1, Glutathione S-transferase (GST) control protein (pGEX-2T) (UniProt P08515 1-218 = GST).
T1 construct: Negative control immobilized on glutathione sepharose; also called GST beads; immobilized GST alone
In words: GST pull-down, immobilized GST control, in vitro translated 35S-labelled chemokine. How it is done:
To confirm the interaction observed in yeast two-hybrid system, we performed in vitro GST pull down assays. THAP1, expressed as a GST-tagged fusion protein and immobilized on glutathione sepharose, was incubated with radiolabeled chemokines that were translated in vitro.
In vitro-translated chemokines were generated with the TNT-coupled reticulocyte lysate system (Promega, Madison, Wis., USA) using as templates pGBKT7-CCL21, -CCL19, -CXCL9, -CXCL10 and CXCL11 chemokine vectors (see Example 32) or pCMV-SPORT6-CCL5 plasmid (Image clone No. 4185200). In vitro-translated IFNγ cytokine was generated similarly using as template plasmid pGBKT7-IFNγ. A 25 μvolume of ³⁵S-labelled chemokine was incubated with immobilized GST-THAP1 or GST proteins overnight at 4° C., in the following binding buffer: 10 mM NaPO4 pH 8.0, 140 mM NaCl, 3 mM MgCl₂, 1 mM dithiothreitol (DTT), 0.05% NP40, and 0.2 mM phenylmethyl sulphonyl fluoride (PMSF), 1 mM Na vanadate, 50 mM β-glycerophosphate, 25 μg/ml chymotrypsine, 5 μg/ml aprotinin, and 10 μg/ml leupeptin. Beads were then washed 5 times in 1 ml binding buffer. Bound proteins were eluted with 2×Laemmli SDS-PAGE sample buffer, fractionated by 10% SDS-PAGE and visualized by fluorography using Amplify (Amersham Pharmacia Biotech). GST/THAP1 specifically bound to chemokines CCL21, CCL19, CCL5, CXCL9, CXCL10 and CXCL11 but not cytokine IFNγ (FIGS. 19 and 20). […] CXCL10 also bound to immobilized GST-THAP1 (indicated by ++ in the column labelled “In vitro binding to GST-THAP1”).

The target in the data set “human THAP1 (THanatos …)” is T2, human THAP1 (THanatos (death)-Associated Protein-1), full length (human, UniProt Q9NVV9 1-213).
T2 construct: also called hTHAP1; FLJ10477
T2 sequence: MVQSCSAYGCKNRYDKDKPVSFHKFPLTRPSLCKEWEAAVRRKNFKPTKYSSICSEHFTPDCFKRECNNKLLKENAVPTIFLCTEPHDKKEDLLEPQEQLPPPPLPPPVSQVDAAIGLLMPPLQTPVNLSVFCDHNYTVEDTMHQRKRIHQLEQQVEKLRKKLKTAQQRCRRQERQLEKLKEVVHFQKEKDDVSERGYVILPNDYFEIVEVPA
In words: yeast two-hybrid, pGADT7-THAP1 mutant with pGBKT7-THAP1 wild-type. The method, then:
Two-hybrid interaction between THAP1 mutants and THAP1 wild type was tested by cotransformation of AH109 with pGADT7-THAP1-C1, -C2, -C3, -N1, -N2 or -N3 and pGBKT7-THAP1 wild-type and selection of transformants by His and Ade double auxotrophy according to manufacturer's instructions ([…] two-hybrid system 3, Clontech).

In another data set the target is T3, THAP1 THAP domain (Homo sapiens, UniProt Q9NVV9 SEQ:1-90).
T3 sequence: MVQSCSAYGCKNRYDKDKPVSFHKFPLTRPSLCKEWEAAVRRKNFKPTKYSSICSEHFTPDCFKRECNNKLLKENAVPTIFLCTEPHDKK
In words: EMSA; 20 mM Tris-HCl pH 7.5, 100 mM KCl, room temperature. As to conditions: tags: C-terminal His6 (pET-21c); label: 32P. The method, then:
To confirm that the THAP domain is a novel sequence specific DNA-binding domain, electrophoretic mobility shift assays (EMSA) were carried out using wild-type or mutant THAP domain responsive elements (THRE) determined by SELEX (see Example 28 and FIGS. 18 and 24). Double-stranded probes used in EMSA experiments were purified on 12% polyacrylamide gels, ³²P end labeled with T4 polynucleotide kinase and quantified by Cerenkov counting. About 20 ng of purified THAP domain from human THAP1 (prepared as described in Example 28) was incubated with 30000 cpm of the appropriate probe (about 2 ng). Binding reactions were carried out for 10 minutes at room temperature in 20 μl binding buffer (20 mM Tris-HCl pH 7.5, 100 mM KCl, 0.1% NP-40, 100 μg/ml BSA, 2.5 mM DTT, 5% glycerol, 200 ng poly (dI-dC)). Electrophoresis was performed on 8% (29:1) polyacrylamide gels containing 5% glycerol. Gels were run in 0.25×TBE at 150V and 4° C., dried and exposed on a phosphoimager screen (Molecular Dynamics). Sequences of wild type and mutant THRE oligonucleotides used in EMSA experiments were as follow (mutations are indicated in bold): wild-type probe 3, 5′-[…]-3′ (SEQ ID NO: 313); mutant probe 3mut1, 5′-[…]-3′ (SEQ ID NO: 314); mutant probe 3mut3, 5′-[…]-3′ (SEQ ID NO: 319); mutant probe 3mut4, 5′-[…]-3′ (SEQ ID NO: 320); mutant probe 3mut14, 5′-[…]-3′ (SEQ ID NO: 321); mutant probe 3mut5, 5′-[…]-3′ (SEQ ID NO: 322).
For competition experiments, 50-, 150-, and 250-fold molar excess of unlabelled wild-type (THRE competitor, probe 3) or mutant (non-specific competitor, probe 3mut1) THRE oligonucleotides were added to the reaction mixture just before the addition of the probe.

Data set [2] deals with T4, human chemokine SLC/CCL21, mature form (amino acids 24-134) (human, UniProt O00585 24-134).
T4 construct: also called SLC/6Ckine; SLC/CCL21 wild type
T4 sequence: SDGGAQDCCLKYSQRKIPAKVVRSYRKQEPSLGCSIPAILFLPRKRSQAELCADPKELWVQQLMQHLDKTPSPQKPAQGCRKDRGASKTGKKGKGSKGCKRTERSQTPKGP
In words: yeast two-hybrid, pGADT7-THAP1 mutant with pGBKT7-SLC/CCL21. The method, then: Two-hybrid interaction between THAP1 mutants and chemokine SLC/CCL21 was tested by cotransformation of AH109 with pGADT7-THAP1-C1, -C2, -C3, -N1, -N2 or -N3 and pGBKT7-SLC/CCL21 and selection of transformants by His and Ade double auxotrophy according to manufacturer's instructions ([…] two-hybrid system 3, Clontech). pGBKT7-SLC/CCL21 vector was generated by subcloning the BamHI SLC/CCL21 fragment from pGBT9-SLC (see example 1) into the unique BamHI cloning site of vector pGBKT7 (Clontech).

T1 sequence (P08515 whole entry): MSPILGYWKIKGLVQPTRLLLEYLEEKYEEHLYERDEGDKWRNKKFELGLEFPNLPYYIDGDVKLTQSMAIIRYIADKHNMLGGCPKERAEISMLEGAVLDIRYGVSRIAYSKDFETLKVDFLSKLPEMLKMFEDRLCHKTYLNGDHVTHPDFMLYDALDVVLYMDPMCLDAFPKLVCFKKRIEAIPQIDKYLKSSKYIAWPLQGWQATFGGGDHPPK

B1: human chemokine I-TAC/CXCL11, mature form (amino acids 22-94) (ligand)
chain: FPMFKRGRCLCIGPGVKAVKVADIEKASIMYPSNNCDKIEVIITLKENKGQRCLNPKSKQARLIIKKVERKNF
notes: The range is stated on the GenBank entry; Tested as a Gal4-BD fusion (pGBKT7-CXCL11) and as in vitro translated 35S-labelled protein from that vector
For the molecule B1, the binding result in data set [1] is on record as “no binding”.

B2: THAP1-C1 deletion mutant (amino acids 90-213) (other)
chain: KEDLLEPQEQLPPPPLPPPVSQVDAAIGLLMPPLQTPVNLSVFCDHNYTVEDTMHQRKRIHQLEQQVEKLRKKLKTAQQRCRRQERQLEKLKEVVHFQKEKDDVSERGYVILPNDYFEIVEVPA
notes: Tested as a Gal4-BD or Gal4-AD fusion, as in vitro translated 35S-labelled protein and as an EGFP fusion; also called THAP1ΔTHAP; THAP1?THAP
As for B2, the binding result with human THAP1 (THanatos …) was “binds”.

B3: 3mut14 (dsDNA)
DNA 1: AGCAAGTAAGGGCCAACTACTTCAT
DNA 2: ATGAAGTAGTTGGCCCTTACTTGCT
On to B3, for which the binding result with THAP1 THAP domain is “no binding”.

B4: THAP1-C3 deletion mutant (amino acids 143-213) (other)
chain: MHQRKRIHQLEQQVEKLRKKLKTAQQRCRRQERQLEKLKEVVHFQKEKDDVSERGYVILPNDYFEIVEVPA
notes: Tested as a Gal4-BD or Gal4-AD fusion, as in vitro translated 35S-labelled protein and as an EGFP fusion
In the case of B4, the binding result (in the data set with human THAP1 (THanatos …); in data set [2]) was “binds” each time.

B5: 3mut4 (dsDNA)
DNA 1: AGCAAGTAAGTGCAAACTACTTCAT
DNA 2: ATGAAGTAGTTTGCACTTACTTGCT
B5: in the data set with THAP1 THAP domain, the binding result is “no binding”.

B6: THAP1-C2 deletion mutant (amino acids 120-213) (other)
chain: MPPLQTPVNLSVFCDHNYTVEDTMHQRKRIHQLEQQVEKLRKKLKTAQQRCRRQERQLEKLKEVVHFQKEKDDVSERGYVILPNDYFEIVEVPA
notes: as for B4
As to B6, the binding result (with human THAP1 (THanatos …); in data set [2]) was “binds” each time.

B7: 3mut3 (dsDNA)
DNA 1: AGCAAGTAAGGTCAAACTACTTCAT
DNA 2: ATGAAGTAGTTTGACCTTACTTGCT
Turning to B7, in the data set with THAP1 THAP domain, the binding result is listed as “no binding”.

B8: THAP1-N3 deletion mutant (amino acids 1-192) (other)
chain: MVQSCSAYGCKNRYDKDKPVSFHKFPLTRPSLCKEWEAAVRRKNFKPTKYSSICSEHFTPDCFKRECNNKLLKENAVPTIFLCTEPHDKKEDLLEPQEQLPPPPLPPPVSQVDAAIGLLMPPLQTPVNLSVFCDHNYTVEDTMHQRKRIHQLEQQVEKLRKKLKTAQQRCRRQERQLEKLKEVVHFQKEKDD
notes: as for B4
On to B8, for which the binding result with human THAP1 (THanatos …) is recorded as “binds”.

B9: 3mut5 (dsDNA)
DNA 1: AGCAAGTAAGGGAAAACTACTTCAT
DNA 2: ATGAAGTAGTTTTCCCTTACTTGCT
On to B9, for which, in the data set with THAP1 THAP domain, the binding result is reported as “no binding”.

The values above are taken from patent publication US20040224408A1, “THAP proteins as nuclear receptors for chemokines and roles in transcriptional regulation, cell proliferation and cell differentiation” (published 2004).
